We go through one molecule from patent publication US10005838B2, “Milk fat globule epidermal growth factor 8 regulates fatty acid uptake” (REGENTS OF THE UNIVERSITY OF CALIFORNIA, priority 2013, dated 2018).

The test can be described thus: Activity of Mfge8 sequence lacking the second discoidin domain (test not named at the place). Particulars: mouse Mfge8 lacking the second discoidin domain.

B1: SEQ ID NO:4: mouse Mfge8 sequence lacking the second discoidan domain but including all other native sequence (protein)
chain: MQVSRVLAALCGMLLCASGLFAASGDFCDSSLCLNGGTCLTGQDNDIYCLCPEGFTGLVCNETERGPCSPNPCYNDAKCLVTLDTQRGDIFTEYICQCPVGYSGIHCETETNYYNLDGEYMFTTAVPNTAVPTPAPTPDLSNNLASRCSTQLGMEGGAIADSQISASSVYMGFMGLQRWGPELARLYRTGIVNAWTASNYDSKPWIQVNLLRKMRVSGVMTQGASRAGRAEYLKTFKVAYSLDGRKFEFIQDESGGDKEFLGNLDNNSLKVNMFNPTLEAQYIKLYPVSCHRGCTLRFELLGCKPFMARYVRVLPVSWHNRITLRLELLGC
modifications: synthetic E1E2D1 mouse milk fat globule epidermal growth factor 8 (Mfge8) long construct (lacking second discoidin domain)
In the case of B1, the “activity of the Mfge8 fragment” value is reported as “remains active”.
